Experiments:
[1] = target: T1, human CD73 on cells (Calu6, NCI-H292, SK-MEL-24, human tumor cell lines, human B and T cells) (human, UniProt P21589 27-549); test: cell-based or functional assay
T1 sequence: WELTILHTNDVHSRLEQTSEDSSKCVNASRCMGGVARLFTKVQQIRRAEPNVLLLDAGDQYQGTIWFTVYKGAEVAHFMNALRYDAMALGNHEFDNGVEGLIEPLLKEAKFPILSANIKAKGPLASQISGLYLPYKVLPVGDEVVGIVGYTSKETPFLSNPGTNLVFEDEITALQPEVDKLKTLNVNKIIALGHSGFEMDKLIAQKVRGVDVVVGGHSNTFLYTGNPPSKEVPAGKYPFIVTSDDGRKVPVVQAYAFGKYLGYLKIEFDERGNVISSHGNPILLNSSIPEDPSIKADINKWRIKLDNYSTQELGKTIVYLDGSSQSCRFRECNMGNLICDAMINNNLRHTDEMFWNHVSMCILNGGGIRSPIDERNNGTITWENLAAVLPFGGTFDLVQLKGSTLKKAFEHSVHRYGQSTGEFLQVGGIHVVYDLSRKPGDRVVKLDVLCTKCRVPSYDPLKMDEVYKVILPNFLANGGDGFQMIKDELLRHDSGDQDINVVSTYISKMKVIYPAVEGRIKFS

[2] = target: T2, rhCD73 bound to his-tag magnet beads (human, UniProt P21589 27-549, limits assumed); test: cell-based or functional assay
T2 sequence: T1 sequence

[3] = target: T3, mouse CD73 (mouse, UniProt Q61503 29-551, limits assumed); test: SPR study of Example 3A; format not described
T3 sequence (looked up): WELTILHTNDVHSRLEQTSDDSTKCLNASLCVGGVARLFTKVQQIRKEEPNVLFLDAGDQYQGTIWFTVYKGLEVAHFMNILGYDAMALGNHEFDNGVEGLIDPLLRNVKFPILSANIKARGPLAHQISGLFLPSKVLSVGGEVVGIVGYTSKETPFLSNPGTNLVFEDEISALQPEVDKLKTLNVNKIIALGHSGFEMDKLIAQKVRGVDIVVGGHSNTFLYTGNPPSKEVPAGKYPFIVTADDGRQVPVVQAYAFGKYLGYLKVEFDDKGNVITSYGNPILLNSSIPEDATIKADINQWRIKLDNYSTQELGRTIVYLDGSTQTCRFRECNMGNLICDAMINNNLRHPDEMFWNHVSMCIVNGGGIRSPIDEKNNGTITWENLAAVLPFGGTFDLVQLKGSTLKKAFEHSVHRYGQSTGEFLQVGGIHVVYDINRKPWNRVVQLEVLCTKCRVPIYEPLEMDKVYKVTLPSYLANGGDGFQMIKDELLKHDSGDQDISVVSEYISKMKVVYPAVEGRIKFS

B1: CD73.4-IgG2-C219S-IgG1.1f (antibody)
heavy: QVQLVESGGGVVQPGRSLRLSCAASGFTFSNYGMHWVRQAPGKGLEWVAVILYDGSNKYYPDSVKGRFTISRDNSKNTLYLQMNSLRAEDTAVYYCARGGSSWYPDSFDIWGQGTMVTVSSASTKGPSVFPLAPCSRSTSESTAALGCLVKDYFPEPVTVSWNSGALTSGVHTFPAVLQSSGLYSLSSVVTVPSSNFGTQTYTCNVDHKPSNTKVDKTVERKSCVECPPCPAPPVAGPSVFLFPPKPKDTLMISRTPEVTCVVVDVSHEDPEVKFNWYVDGVEVHNAKTKPREEQYNSTYRVVSVLTVLHQDWLNGKEYKCKVSNKALPSSIEKTISKAKGQPREPQVYTLPPSREEMTKNQVSLTCLVKGFYPSDIAVEWESNGQPENNYKTTPPVLDSDGSFFLYSKLTVDKSRWQQGNVFSCSVMHEALHNHYTQKSLSLSPG
light: not shown
modifications: 94% of the N-terminal glutamine was pyro-Q; 97% of the heavy chains lacked the C-terminal lysine
notes: also called CD73.4-IgG2CS-IgG1.1f
- EC50, blockade of endogenous cellular CD73 in Calu6 [1]: 0.31 to 0.48 nM
- EC50 for blockade of endogenous cellular CD73 in Calu6 [1]: 0.31 to 0.48 nM
- EC50, recombinant human CD73 enzyme inhibition assay [2]: 2.9 to 3.1 nM
- binding result [3]: no binding
